The values below come from IntAct's records for PubMed 15161910.

B1: Serine/threonine-protein kinase Nek2 (Homo sapiens), P51955 (parent)
chain: MPSRAEDYEVLYTIGTGSYGRCQKIRRKSDGKILVWKELDYGSMTEAEKQMLVSEVNLLRELKHPNIVRYYDRIIDRTNTTLYIVMEYCEGGDLASVITKGTKERQYLDEEFVLRVMTQLTLALKECHRRSDGGHTVLHRDLKPANVFLDGKQNVKLGDFGLARILNHDTSFAKTFVGTPYYMSPEQMNRMSYNEKSDIWSLGCLLYELCALMPPFTAFSQKELAGKIREGKFRRIPYRYSDELNEIITRMLNLKDYHRPSVEEILENPLIADLVADEQRRNLERRGRQLGEPEKSQDSSPVLSELKLKEIQLQERERALKAREERLEQKEQELCVRERLAEDKLARAENLLKNYSLLKERKFLSLASNPELLNLPSSVIKKKVHFSGESKENIMRSENSESQLTSKSKCKDLKKRLHAAQLRAQALSDIEKNYQLKSRQILGMR
partner: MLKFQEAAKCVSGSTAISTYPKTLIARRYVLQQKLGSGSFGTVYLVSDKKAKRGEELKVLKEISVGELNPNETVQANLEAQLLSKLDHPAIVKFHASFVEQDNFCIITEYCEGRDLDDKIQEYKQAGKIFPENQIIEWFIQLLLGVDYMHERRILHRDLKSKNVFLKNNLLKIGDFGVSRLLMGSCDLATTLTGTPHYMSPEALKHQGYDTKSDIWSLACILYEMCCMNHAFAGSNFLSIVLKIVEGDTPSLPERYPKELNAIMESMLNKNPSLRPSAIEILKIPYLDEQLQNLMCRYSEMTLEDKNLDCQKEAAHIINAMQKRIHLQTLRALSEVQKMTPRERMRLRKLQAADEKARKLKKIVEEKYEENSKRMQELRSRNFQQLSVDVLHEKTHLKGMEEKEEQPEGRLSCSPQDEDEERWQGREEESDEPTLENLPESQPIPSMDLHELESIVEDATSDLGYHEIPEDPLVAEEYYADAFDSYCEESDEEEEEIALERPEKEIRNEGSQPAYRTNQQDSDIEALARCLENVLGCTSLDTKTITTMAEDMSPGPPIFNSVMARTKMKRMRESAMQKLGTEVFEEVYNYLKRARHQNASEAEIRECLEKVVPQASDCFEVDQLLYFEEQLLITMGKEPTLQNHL

The first assay covers variants of B1. Conditions: with nek11_human NEK11, Q8NG66.
For the variant K37R, the “effect of a mutation on the interaction” value is “decreasing interaction”.

Variants of B1 are the subject of another assay. The following applies: with nek11_human NEK11, Q8NG66. The source holds these as a separate data set.
In the case of K37R, the “effect of a mutation on the interaction” value is “increasing interaction”.
